Data set [1] addresses T1, DrmA;DrmB (Serratia sp. SCBI;Serratia sp. SCBI, UniProt A0A979HMQ0;A0A979HMQ1 1-1325;1-619, |). The data set is described as follows: cryo-EM; 1 mM ADP; EMSA: 150 mM NaCl, 25 mM HEPES pH 7.4, 30 min room temperature, 5 nM DNA; 1.5% agarose, 1x TBE. The settings on record: protein: recombinant;recombinant; tags: none stated;tagged (Ni-NTA purification); copies: 1;1; label: none; hairpin; 19-bp stem, 5-nt loop, 5' tail 7 nt, 3' tail 21 nt (Methods: 6 and 20).

The target in data set [2] is T1, DrmA;DrmB. As to the kind of experiment: EMSA; 1 µM protein; EMSA: 150 mM NaCl, 25 mM HEPES pH 7.4, 30 min room temperature, 5 nM DNA; 1.5% agarose, 1x TBE. The note with it: protein: recombinant;recombinant, tags: none stated;tagged (Ni-NTA purification), copies: 1;1, label: 5'-Cy5 on strand 1. For orientation: In EMSA bound probe runs differently from free probe, usually more slowly.

Data set [3] addresses T2, DrmA(∆loop) / DrmA(∆TL);DrmB (Serratia sp. SCBI;Serratia sp. SCBI, UniProt A0A979HMQ0;A0A979HMQ1 1-1325;1-619, del181-233|). The description is as above. The settings on record: protein: recombinant;recombinant, tags: none stated;tagged (Ni-NTA purification), copies: 1;1, label: 5'-Cy5 on strand 1.
The target of data set [4] is T1, DrmA;DrmB. The data set is described as follows: EMSA; binding at 1 µM protein or higher; smeared (dissociation); EMSA: 150 mM NaCl, 25 mM HEPES pH 7.4, 30 min room temperature, 5 nM DNA; 1.5% agarose, 1x TBE. The settings on record: protein: recombinant;recombinant; tags: none stated;tagged (Ni-NTA purification); copies: 1;1; label: 5'-Cy5; single strand.
The target of data set [5] is T2, DrmA(∆loop) / DrmA(∆TL);DrmB. The data set is described as follows: EMSA; no dissociation smear; second super-shift at 1 µM or higher; EMSA: 150 mM NaCl, 25 mM HEPES pH 7.4, 30 min room temperature, 5 nM DNA; 1.5% agarose, 1x TBE. The settings on record: protein: recombinant;recombinant; tags: none stated;tagged (Ni-NTA purification); copies: 1;1; label: 5'-Cy5; single strand.

B1: DNA stem loop (forked hairpin) (structured_DNA)
DNA: TTTTTTTCATCGATGAGCACTGCTATTCCCTAGCAGTGCTCATCGATGATTTTCATCGATGAGCGGTTTT
modifications: none (unmethylated)
In the case of B1, the binding result with DrmA;DrmB [1] is “binds”.

B2: 3'ovh DNA (75-nt + 5' block) (mixed)
DNA 1: ATTTTGACAGCCCACATGGCTTGATGAGTGGCGCACTCGCCAGCCTGAGCATGGCGAAAACTCCTCCAGTCTGCT
DNA 2: GCCATGTGGGCTGTCAAAAT
Regarding B2, the binding result with DrmA;DrmB [2] (3' overhang 55 nt) is listed as “no binding”; in data set [3] (3' overhang 55 nt), “binds”.

B3: 75-bp dsDNA (dsDNA)
DNA 1: ATTTTGACAGCCCACATGGCTTGATGAGTGGCGCACTCGCCAGCCTGAGCATGGCGAAAACTCCTCCAGTCTGCT
DNA 2: AGCAGACTGGAGGAGTTTTCGCCATGCTCAGGCTGGCGAGTGCGCCACTCATCAAGCCATGTGGGCTGTCAAAAT
In the case of B3, the binding result with DrmA;DrmB [2] (blunt) was “no binding”; in data set [3] (blunt), “binds”.

B4: 5'ovh DNA (75-nt + 3' block) (mixed)
DNA 1: ATTTTGACAGCCCACATGGCTTGATGAGTGGCGCACTCGCCAGCCTGAGCATGGCGAAAACTCCTCCAGTCTGCT
DNA 2: AGCAGACTGGAGGAGTTTTC
Turning to B4, the binding result (with DrmA;DrmB [2] (5' overhang 55 nt); in data set [3] (5' overhang 55 nt)) was “binds” in each case.

B5: 75-nt Cy5 ssDNA (ssDNA)
DNA: ATTTTGACAGCCCACATGGCTTGATGAGTGGCGCACTCGCCAGCCTGAGCATGGCGAAAACTCCTCCAGTCTGCT
With B5, the binding result (with DrmA;DrmB [4]; in data set [5]) was “binds” in each case.

These data come from publication PMC9142583, “Structural basis for broad anti-phage immunity by DISARM” (Nature Communications, 2022).
